Measurements: publication PMC10540216, “Activity Guided Azide-methyllysine Photo-trapping for Substrate Profiling of Lysine Demethylases” (Journal of the American Chemical Society, 2023)
“Also recorded” adds a separate entry of the source.

B1: KDM4A: full-length wild-type KDM4A overexpressed in HEK293T cells (protein, UniProt O75164 1-1064, looked up)
chain: MASESETLNPSARIMTFYPTMEEFRNFSRYIAYIESQGAHRAGLAKVVPPKEWKPRASYDDIDDLVIPAPIQQLVTGQSGLFTQYNIQKKAMTVREFRKIANSDKYCTPRYSEFEELERKYWKNLTFNPPIYGADVNGTLYEKHVDEWNIGRLRTILDLVEKESGITIEGVNTPYLYFGMWKTSFAWHTEDMDLYSINYLHFGEPKSWYSVPPEHGKRLERLAKGFFPGSAQSCEAFLRHKMTLISPLMLKKYGIPFDKVTQEAGEFMITFPYGYHAGFNHGFNCAESTNFATRRWIEYGKQAVLCSCRKDMVKISMDVFVRKFQPERYKLWKAGKDNTVIDHTLPTPEAAEFLKESELPPRAGNEEECPEEDMEGVEDGEEGDLKTSLAKHRIGTKRHRVCLEIPQEVSQSELFPKEDLSSEQYEMTECPAALAPVRPTHSSVRQVEDGLTFPDYSDSTEVKFEELKNVKLEEEDEEEEQAAAALDLSVNPASVGGRLVFSGSKKKSSSSLGSGSSRDSISSDSETSEPLSCRAQGQTGVLTVHSYAKGDGRVTVGEPCTRKKGSAARSFSERELAEVADEYMFSLEENKKSKGRRQPLSKLPRHHPLVLQECVSDDETSEQLTPEEEAEETEAWAKPLSQLWQNRPPNFEAEKEFNETMAQQAPHCAVCMIFQTYHQVEFGGFNQNCGNASDLAPQKQRTKPLIPEMCFTSTGCSTDINLSTPYLEEDGTSILVSCKKCSVRVHASCYGVPPAKASEDWMCSRCSANALEEDCCLCSLRGGALQRANDDRWVHVSCAVAILEARFVNIAERSPVDVSKIPLPRFKLKCIFCKKRRKRTAGCCVQCSHGRCPTAFHVSCAQAAGVMMQPDDWPFVVFITCFRHKIPNLERAKGALQSITAGQKVISKHKNGRFYQCEVVRLTTETFYEVNFDDGSFSDNLYPEDIVSQDCLQFGPPAEGEVVQVRWTDGQVYGAKFVASHPIQMYQVEFEDGSQLVVKRDDVYTLDEELPKRVKSRLSVASDMRFNEIFTEKEVKQEKKRQRVINSRYREDYIEPALYRAIME
modifications: full-length
B2: G9a: full-length G9a methyltransferase expressed in HEK293T cells (protein, UniProt Q96KQ7 1-1210, looked up)
chain: MAAAAGAAAAAAAEGEAPAEMGALLLEKETRGATERVHGSLGDTPRSEETLPKATPDSLEPAGPSSPASVTVTVGDEGADTPVGATPLIGDESENLEGDGDLRGGRILLGHATKSFPSSPSKGGSCPSRAKMSMTGAGKSPPSVQSLAMRLLSMPGAQGAAAAGSEPPPATTSPEGQPKVHRARKTMSKPGNGQPPVPEKRPPEIQHFRMSDDVHSLGKVTSDLAKRRKLNSGGGLSEELGSARRSGEVTLTKGDPGSLEEWETVVGDDFSLYYDSYSVDERVDSDSKSEVEALTEQLSEEEEEEEEEEEEEEEEEEEEEEEEDEESGNQSDRSGSSGRRKAKKKWRKDSPWVKPSRKRRKREPPRAKEPRGVNGVGSSGPSEYMEVPLGSLELPSEGTLSPNHAGVSNDTSSLETERGFEELPLCSCRMEAPKIDRISERAGHKCMATESVDGELSGCNAAILKRETMRPSSRVALMVLCETHRARMVKHHCCPGCGYFCTAGTFLECHPDFRVAHRFHKACVSQLNGMVFCPHCGEDASEAQEVTIPRGDGVTPPAGTAAPAPPPLSQDVPGRADTSQPSARMRGHGEPRRPPCDPLADTIDSSGPSLTLPNGGCLSAVGLPLGPGREALEKALVIQESERRKKLRFHPRQLYLSVKQGELQKVILMLLDNLDPNFQSDQQSKRTPLHAAAQKGSVEICHVLLQAGANINAVDKQQRTPLMEAVVNNHLEVARYMVQRGGCVYSKEEDGSTCLHHAAKIGNLEMVSLLLSTGQVDVNAQDSGGWTPIIWAAEHKHIEVIRMLLTRGADVTLTDNEENICLHWASFTGSAAIAEVLLNARCDLHAVNYHGDTPLHIAARESYHDCVLLFLSRGANPELRNKEGDTAWDLTPERSDVWFALQLNRKLRLGVGNRAIRTEKIICRDVARGYENVPIPCVNGVDGEPCPEDYKYISENCETSTMNIDRNITHLQHCTCVDDCSSSNCLCGQLSIRCWYDKDGRLLQEFNKIEPPLIFECNQACSCWRNCKNRVVQSGIKVRLQLYRTAKMGWGVRALQTIPQGTFICEYVGELISDAEADVREDDSYLFDLDNKDGEVYCIDARYYGNISRFINHLCDPNIIPVRVFMLHQDLRFPRIAFFSSRDIRTGEELGFDYGDRFWDIKSKYFTCQCGSEKCKHSAEAIALEQSRLARLDPHPELLPELGSLPPVNT
modifications: full-length
notes: full-length G9a methyltransferase expressed in HEK293T cells

Tests used:
Type in all cases: cell-based, human
[1] = test system: eIF4A3 trimethylation in HEK293T cells; test: Immunoprecipitation of eIF4A3 from HEK293T cells and Kme3 immunoblot; conditions: eIF4A3 IP, pan-Kme3 immunoblot, vs control vector or control siRNA
CBX1-eIF4A3 interaction [2] = test: Interactome pull-down of eIF4A3 using recombinant CBX1 from HEK293T nuclear extracts; conditions: 6xHis CBX1, Ni-NTA beads
CBX1-eIF4A3 interaction [3] = test: Immunoprecipitation using CBX1 antibody from HEK293T cells, eIF4A3 immunoblot; conditions: vs control vector
Procedure: concentration. The samples were then heated to 65°C for 15 minutes and loaded into a 4-12% polyacrylamide gel for Western blotting.
22. Immunoprecipitation using eIF4A3 and CBX1 antibodies […]
Then 4 mg of nuclear extracts were added and left mixing overnight at 4°C. The following day, the beads were pelleted, and the supernatant was removed.
The beads were washed twice with 50 mM Tris pH 7.5, 100 mM KCl, 0.1% Triton X. Laemmli dye (4X) was added to “elution buffer” from the Protein A Dynabead kit for a final 1X concentration. Each sample received 60 µL of the denaturing elution solution and was then incubated at 65°C for 15 minutes. The beads were pelleted on the magnetic rack and the supernatants were collected to perform Western blots. […]
Each microcentrifuge tube received an CBX1 antibody mixture containing 10 µL antibody (ProteinTech cat. # 10241-2-AP). The antibodies […]
were incubated with the beads using gentle agitation for 1 hour at 4°C. The beads were then washed 2x with conjugation buffer (200 µl of 20 mM sodium phosphate, 0.15M NaCl). BS3 crosslinking solution (250 µl of 5 mM BS3 in conjugation buffer) was added to each aliquot and incubated at room temperature for 20 minutes. The supernatant was removed and a second round of BS3 solution was administered for 5 minutes at room temperature. […]

| Molecule | eIF4A3 Kme3 level [1] | eIF4A3 enrichment by recombinant CBX1 pull-down (CBX1-eIF4A3 interaction [2]) | eIF4A3 enrichment by endogenous CBX1 (IP) (CBX1-eIF4A3 interaction [3]) |
| --- | --- | --- | --- |
| B1 | significantly reduced the Kme3 level; also recorded: robustly deceases eIF4A3 methylation; also recorded: robust eIF4A3 demethylation | decreased the association | decreased in KDM4A-transfected cells; also recorded: reduced it compared to control vector-transfected cells |
| B2 | increased Kme3 compared to the control vector; also recorded: considerable increase in Kme3 on eIF4A3 | maximum enrichment of eIF4A3 | increased in G9a-transfected cells; also recorded: robust enrichment of eIF4A3 by CBX1 |
